Data: US20100261660A1 (published 2010)
Numbering of substitutions follows the chain as printed.

B1: Round 2 CTLA4BP-5x2-11d (ligand)
chain: VIHVTKEVKEVATLSCGHNVSVEELAQTRIHWQKEKKMVLTMMSGDMNIWPEYKNRTIFDITNNLSIVILALRPSDEGTYECVVLKYEKDAFKREHLAEVMLSVKADFPTPSITDFEIPPSNIRRIICSTSGGFPEPHLFWLENGEELNAINTTVSQDPETELYTVSSKLDFNMTTDRSFVCLIKYGHLRVNQTFNWNTPKQEHFPDNLLPSWAITLISANGIFVICCLTYCFAPRCRERKSNETLRRESVRPV
B2: Round 2 CD28D10-4 (ligand)
chain: SGITPKSVTKRVKETVMLSCDYNTSTEELTSLRIYWQKDSKMVLAILPGKVQVWPEYKNRTITDMNDNPRIVILALRLSDKGTYTCVVQKNENGSFRREHLTSVTLSIRADFPVPSITDIGHPAPNVKRIRCSASGGFPEPRLAWMEDGEELNAVNTTVDQDLDTELYSVSSELDFNVTNNHSIVCLIKYGELSVSQIFPWSKPKQEPPIDQLPFWVIIPVSGALVLTAVVLYCLACRHVARWKRTRRNEETVGTERLSPIYLGSAQSSG
B3: Round 2 CD28BP-17 (ligand)
chain: SGITPKSVTKRVKETVMLSCDYSTSTEELTSLRIYWQKDSKMVLAILPGKVQVWPEYKNRTFPDIINNLSLMILALRLSDKGTYTCVVQKNENGSFRREHLTSVTLSIRADFPVPSITDIGHPAPNVKRIRCSASGDFPEPRLAWMEDGEELNAVNTTVDQDLDTELYSVSSELDFNVTNNHSIVCLIKYGELSVSQIFPWSKPKQEPPIDQLPFWVIIPVSGALVLTVVVLYCLACRHVARWKRTRRNEETVGTERLSPIYLGSAQSSG
B4: Round 2 CD28G1-5 (ligand)
chain: B3 chain with P115S, D137G, V229A
B5: Round 2 CD28A8-6 (ligand)
chain: B2 chain with L18P, N23S, K81S
B6: Round 2 CD28F3-5 (ligand)
chain: B2 chain with K81S
notes: also called GD28F3-5
B7: Round 2 CD28BP-11 (ligand)
chain: B2 chain with T24A
B8: Round 1 CD28BP-126 (ligand)
chain: ITPKSVTKRVKETVMLSCDYSTSTEELTSLRIYWQKDSKMVLAILPGKVQVWPEYKNRTITDMNDNPRIVILALRLSDSGTYTCVIQKPDLKGAYKLEHLTSVRLMIRADFPVPTINDLGNPSPNIRRLICSTSGGFPRPHLYWLENGEELNATNTTVSQDPGTELYMISSELDFNVTNNHSIVCLIKYGELSVSQIFPWSKPKQEPPIDQLPFWVIIPVSGALVLTAVVLYCLACRHVARWKRTRRNEETVGTERLSPIYLGSAQSSG
notes: also called R1clone 126; Clone 126
B9: Round 2 CD28BP-4 (ligand)
chain: B8 chain with S21N, D90V, T101A, Y143C
B10: Round 2 CD28A6-9 (ligand)
chain: B8 chain with S21N, D90V, T101A, W215L
B11: Round 2 CD28BP-13 (ligand)
chain: ITPKSVTKRVKETVMLSCDYSTSTEELTSLRIYWQKDSKMVLAILPGKVQVWPEYKNRTITDMNDNPRIVILALRLSDSGTYTCVIQKPVLKGAYKLEHLASVRLMIRADFPVPTINDLGNPSPNIRRLICSTSGGFPEPRLAWMEDGEELNAVNTTVDQDLDTELYSVSSELDFNVTNNHSIVCLIKYGELSVSQIFPWSKPKQEPPIDQLPFWVIIPVSGALVLTAVVLYCLACRHVARWKRTRRNEETVGTERLSPIYLGSAQSSG
B12: Round 2 CD28A6-1 (ligand)
chain: B8 chain with S21N, D90V, T101A, G163E, E165K, W215R, V229I
B13: Round 2 CD28BP-2 (ligand)
chain: B8 chain with D90V, T101A, V158L, G163E, E165K, C233R, L234P
B14: Round 2 CD28B2-8 (ligand)
chain: B8 chain with S21N, S79K, D90V, T101A
B15: Round 2 CD28A4-5* (ligand)
chain: B8 chain with S21N, D90V, V158L, G163E, E165K
B16: Round 2 CD28BP-5 (ligand)
chain: B8 chain with S79K, I86V, D90V
B17: Round 2 CD28A8-4 (ligand)
chain: B8 chain with S21N, D90V
B18: Round 2 CTLA4 A-C9-9 (ligand)
chain: B3 chain with K81R, D137G, S171G, V229A, C237R
B19: Round 2 CTLA4BP-5x2-10c (ligand)
chain: VIHVTKEVKEVATLSCGHNVSVEELAQTRIHWQKEKKMVLTMMSGDMNIWPEYKNRTIFDITNNLSIVILALRPSDEGTYECVVLKYEKDAFKREHLAEVMLSVKADFPTPSITDFEIPPSNIRRIICSTSGGFPEPHLSWLENGEELNAINTTVSQDPETELYTVSSKLDFNMTANHSFVCLIKYGHLRVNQTFNWNTPKQEHFPDNLLPSWAITLISVNGIFVICCLTYCFAPRCRERRNETLRRESVRPV
B20: Round 1 (R1) CD28BP-71 (ligand)
chain: ITPKSVTKRVKETVMLSCDYNTSTEELTSLRIYWQKDSKMVLAILPGKVQVWPEYKNRTITDMNDNPRIVILALRLSDSGTYTCVIQKPVLKGAYKLEHLASVRLMIRADFPVPTINDLGNPSPNIRRLICSTSGGFPRPHLYWLENGEELNATNTTLSQDPETKLYMISSELDFNMTSNHSFLCLVKYGDLTVSQTFYWQESKPTPSANQHLTWTIIIPVSAFGISVIIAVILTCLTCRNAAIRRQRRENEVEMQSCSQSP
notes: also called R1clone71; Clone 71
B21: Round 2 CTLA4 A-B4-6 (ligand)
chain: ITPKSVTKRVKETVMLSCDYNTSTEELTSLRIYWQKDSKMVLAILPGKVQVWPEYKNRTITDMNDNPRIVILALRLSDKGTYTCVVQKNENGSFRREHLTSVTLSIRADFPVPTINDLGNPSPNIRRLICSTSGGFPRPHLYWLENGEELNATNTTLSQDPETKLYMISSELDFNMTSNHSFLCLVKYGDLTVSQTFYWQESKPTPSANQHLTWTIIIPVSAFGISVIIAVILTCLTCRNAAIRRQRRENEVEMQSCSQSP
B22: Round 2 CTLA4 A-F10-1 (ligand)
chain: B21 chain with F197L
B23: Round 2 CTLA4 A-F1-6 (ligand)
chain: B21 chain with N21S, T103R, S105M
B24: Round 2 CTLA4 A-E2-6 (ligand)
chain: B21 chain with K79S, T103R, S105M, S158P
B25: Round 2 CD28BP-8 (ligand)
chain: ITPKSVTKRVKETVMLSCDYNTSTEELTSLRIYWQKDSKMVLAILPGKVQVWPEYKNRTITDMNDNPRIVILALRLSDSGTYTCVIQKPVLKGAYKLEHLASVRLMIRADFPVPSITDIGHPAPNVKRIRCSASGGFPEPRLAWMEDGEELNAVNTTVDQDLDTELYSVSSELDSNVTNNHSIVCLIKYGELSVSQIFPWSKPKQEPPIDQLPFWVIIPVSGALVLTAVVLYCLACRHVARWKRTRRNEETVGTERLSPIYLGSAQSSG
B26: Round 2 CTLA4 A-H4-5* (ligand)
chain: ITPKSVTKRVKETVMLSCDYSTSTEELTSLRIYWQKDSKMVLAILPGKVQVWPEYKNRTITDMNDNPRIVILALRLSDKGTYTCVVQKNENGSFRREHLTSVTLSIRADFPVPSITDIGHPAPNVKRIRCSASGGFPEPRLYWLENGEELNATNTTVSQDPGTELYMISSELDFNVTNNHSIVCLIKYGELSVSQIFPWSKPKQEPPIDQLPFWVIIPVSGALVLTAVVLYCLACRHVARWKRTRRNEETVGTERLSPIYLGSAQSSG
B27: Round 1 CTLA4BP-7 (ligand)
chain: VIHVTNEVKEVATLSCGHNVSGEELAQTRIYWQKEKKMVLTMMYGDMNIWPEYKNRTIFDITNNLSIVILALRPSDEGTYECVVLKYEKDAFKREHLAEVMLSVKADFPTPSITDFEIPPSNIRRIICLTSGGFPEPRLAWMKDGEELNAISTTVSQDPGTELYAVSSKLDFNMTTNHSFMCLIKYGHLRVNQTFSWNTPKQEHFPDNLLPSWAITLISVNGIFVICCLTYCFAPRCRERRRNERLRRESVRPV
notes: also called R1-7; R1 CTLA-4BP-7

Assays:
[1] = target: T1, Soluble CTLA-4-Ig (extracellular domain of human CTLA-4 fused to the Fc portion of human IgG1) (human, UniProt P16410 36-161, FITC-conjugated in the FACS binding assays); test: competitive FACS on transfected cells, FITC-sCTLA-4-Ig with biotin-sCD28-Ig; grade 0-2 of CTLA-4/CD28 ratio vs WT hB7-1
T1 construct: extracellular domain; bought from R&D Systems; also called sCTLA-4-Ig; CTLA-4-Ig Fc; not shown: Fc portion of human IgG1

[2] = target: T2, Soluble CD28-Ig (extracellular domain of human CD28 fused to the Fc portion of human IgG1) (human, UniProt P10747 19-152, biotin-conjugated (NHS-biotin) in the FACS binding assays); test: competitive FACS on transfected cells, biotin-sCD28-Ig with FITC-sCTLA-4-Ig; grade 0-2 of CD28/CTLA-4 ratio vs WT hB7-1
T2 construct: extracellular domain; bought from R&D Systems; also called sCD28-Ig; CD28-Ig Fc; not shown: Fc portion of human IgG1

T1 sequence (P16410 36-161): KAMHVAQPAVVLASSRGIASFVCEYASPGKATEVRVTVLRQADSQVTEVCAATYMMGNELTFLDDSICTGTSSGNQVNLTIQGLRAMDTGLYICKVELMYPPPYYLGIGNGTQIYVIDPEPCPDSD

Binder | Binding Score [1] | Binding Score [2]
B1 | 2 | –
B2 | – | 0
B3 | – | 2
B4 | – | 1
B5 | – | 1
B6 | – | 0
B7 | – | 2
B8 | – | 1
B9 | – | 2
B10 | – | 1
B11 | – | 2
B12 | – | 1
B13 | – | 2
B14 | – | 1
B15 | – | 1
B16 | – | 2
B17 | – | 1
B18 | 0 | –
B19 | 2 | –
B20 | – | 1
B21 | 1 | –
B22 | 1 | –
B23 | 1 | –
B24 | 1 | –
B25 | – | 2
B26 | 1 | –
B27 | 1 | –
